In PMC6879014, “Biophysical screening methods for extracellular domain peptide receptors, application to natriuretic peptide receptor C ligands” (Chemical Biology & Drug Design, 2018):
Numbering of substitutions follows the chain as printed. Where “and” joins values, the source holds several entries; their conditions need not be identical. Equal entries are not always repeated. Bridge positions count the residues as written; N and C are the ends. Ends that are not written are not given here. * marks the point of attachment. 5FAM = O=C1OC2(c3ccc(O)cc3Oc3cc(O)ccc32)c2ccc(C(=O)*)cc21

How the values were obtained:
[1] = biological target: T1, Human full‐length (FL) NPR‐C (27–541)‐10His‐Flag (Homo sapiens, UniProt P17342); test: Surface plasmon resonance, immobilized full‐length NPR‐C; type: binding; details: SPR, experimentally observed R max as percentage of theoretical R max (quality control), each table line a separate run
T1 construct: Human full‐length (FL) NPR‐C (27–541)‐10His‐Flag; 10His (C); Flag (C); purchased Peak Proteins, UK
T1 sequence (P17342 27-541): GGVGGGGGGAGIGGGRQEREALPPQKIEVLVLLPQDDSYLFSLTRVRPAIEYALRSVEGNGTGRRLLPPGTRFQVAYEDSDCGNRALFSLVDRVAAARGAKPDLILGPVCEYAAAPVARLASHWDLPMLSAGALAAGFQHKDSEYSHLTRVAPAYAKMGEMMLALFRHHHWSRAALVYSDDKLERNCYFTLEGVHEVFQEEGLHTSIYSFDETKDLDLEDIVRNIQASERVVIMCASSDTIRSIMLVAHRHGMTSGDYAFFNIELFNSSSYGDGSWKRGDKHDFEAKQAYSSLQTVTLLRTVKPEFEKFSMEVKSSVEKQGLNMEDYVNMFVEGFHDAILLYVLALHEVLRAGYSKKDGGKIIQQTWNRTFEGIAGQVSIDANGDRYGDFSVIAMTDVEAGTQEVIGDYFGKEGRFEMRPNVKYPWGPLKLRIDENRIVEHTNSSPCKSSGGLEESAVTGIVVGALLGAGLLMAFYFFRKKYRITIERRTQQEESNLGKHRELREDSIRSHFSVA

FL NPR‐C = biological target: T2, FL NPR‐C (Homo sapiens, UniProt P17342); test: Thermal shift assay (Protein Thermal Shift Dye Kit); type: binding; details: for ΔTm: FL NPR‐C 0.1 mg/ml, 1× dye, ramp 25–99°C, T m mean across four replicates
T2 construct: Human full‐length (FL) NPR‐C (27–541)‐10His‐Flag; 10His (C); Flag (C); purchased Peak Proteins, UK
T2 sequence (P17342 27-541): T1 sequence (P17342 27-541)
Description: Thermal shift assays were performed using Thermo Fisher Scientific Protein Thermal Shift™ Dye Kit, and samples were prepared according to the accompanying protocol.17 A solution of Protein Thermal Shift™ Dye was always prepared fresh from the 1,000× stock. Optimization experiments were performed by titrating NPR‐C protein (0.1, 0.05 and 0.01 mg/ml) and Protein Thermal Shift™ Dye concentration (80, 8 and 1×) to identify conditions that achieved melt curves with the greatest dynamic fluorescence range and least standard error in T m (melt temperature) values. […] The total volume for each reaction was 20.0 μl. Each melt reaction was mixed at least 10 times, and the plate was sealed with MicroAmp® Optical Adhesive Film. The plate was then spun it at 112 g for 1 min and placed on ice until measurement. Thermal melt reactions were performed and analysed using a 7500 Real‐Time PCR System®. A 5‐carboxy‐X‐rhodamine (ROX) reporter and a continuous temperature ramp of 25–99°C were used (2 min per step). Optical filters were set at 580 nm (excitation) and 623 nm (emission). The T m for each sample was obtained by differentiating the original fluorescence melt curve using OriginPro mathematical and peak identification functions. The reported T m values are the mean across four replicates.

NPR‐C = details: literature value in Table 2; read-out: K i, literature; cited from earlier work
Source text: Table 2 Summary of control peptide FP analyses | column: K i (competitive; nM)

[2] = biological target: T3, extracellular domain (ECD) NPR‐C (27–481)‐6His (Homo sapiens, UniProt P17342); test: Surface plasmon resonance, immobilized extracellular domain NPR‐C; type: binding; details: SPR, experimentally observed R max as percentage of theoretical R max (quality control), each table line a separate run
T3 construct: extracellular domain (ECD) NPR‐C (27–481)‐6His; 6His (C); purchased Peak Proteins, UK
T3 sequence (P17342 27-481): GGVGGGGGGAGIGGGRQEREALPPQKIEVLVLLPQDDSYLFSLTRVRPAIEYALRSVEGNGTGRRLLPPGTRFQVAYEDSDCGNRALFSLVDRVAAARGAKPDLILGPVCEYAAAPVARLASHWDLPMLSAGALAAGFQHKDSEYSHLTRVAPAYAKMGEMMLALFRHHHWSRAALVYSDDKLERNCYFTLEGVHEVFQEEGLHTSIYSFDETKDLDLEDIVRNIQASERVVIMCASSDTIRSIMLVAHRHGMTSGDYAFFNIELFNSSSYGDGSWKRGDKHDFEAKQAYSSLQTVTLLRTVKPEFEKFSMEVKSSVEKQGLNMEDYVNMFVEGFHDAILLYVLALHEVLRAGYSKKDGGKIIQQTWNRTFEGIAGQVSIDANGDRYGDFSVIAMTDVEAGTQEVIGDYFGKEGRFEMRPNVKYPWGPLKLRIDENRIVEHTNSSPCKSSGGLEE

[3] = biological target: T4, Human full-length (FL) NPR-C (27–541)-10His-Flag (human, UniProt P17342-2 27-540); test: SPR; steady-state affinity analysis of Flu-P19 on immobilised FL NPR-C; details: both partners purified
T4 construct: natriuretic peptide receptor C (NPR-C), human, residues 27-541; Primarily a disulphide-bonded dimer (~130 kDa) on non-reducing SDS-PAGE; The tag's end is read from the construct's name (27–541)-10His-Flag; also called natriuretic peptide receptor C; natriuretic peptide receptor type-C; source: expressed and isolated at Peak Proteins, UK; not shown: 10His, C-terminal, kept; Flag, C-terminal, kept
T4 sequence (looked up): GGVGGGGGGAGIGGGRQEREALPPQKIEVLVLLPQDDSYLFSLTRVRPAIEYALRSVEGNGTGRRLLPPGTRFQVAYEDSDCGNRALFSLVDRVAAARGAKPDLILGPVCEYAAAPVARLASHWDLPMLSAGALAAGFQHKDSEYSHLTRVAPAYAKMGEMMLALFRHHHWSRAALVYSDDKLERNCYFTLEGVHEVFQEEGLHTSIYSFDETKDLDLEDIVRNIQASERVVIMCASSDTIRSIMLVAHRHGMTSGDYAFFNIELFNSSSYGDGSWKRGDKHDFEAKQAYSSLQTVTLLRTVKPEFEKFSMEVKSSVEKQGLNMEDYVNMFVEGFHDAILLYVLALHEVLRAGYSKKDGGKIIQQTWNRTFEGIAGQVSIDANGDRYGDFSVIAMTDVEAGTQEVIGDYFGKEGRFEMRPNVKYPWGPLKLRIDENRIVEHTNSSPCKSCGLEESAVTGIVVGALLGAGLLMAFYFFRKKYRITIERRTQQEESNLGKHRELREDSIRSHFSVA

[4] = biological target: T4, Human full-length (FL) NPR-C …; test: thermal shift; Protein Thermal Shift Dye Kit; FL NPR-C 0.1 mg/ml, 1x dye; ligand at 1:1 or 10:1 ratio to the protein; ramp 25-99°C; Tm mean of four replicates; details: both partners purified
[5] = biological target: T5, extracellular domain (ECD) NPR-C (27–481)-6His (human, UniProt P17342-2 27-481); test: fluorescence polarisation; competition against 15 nM Flu-P19 probe; FL NPR-C 150 nM or ECD NPR-C 400 nM; competitor 4.89 nM-2.5 uM; HEPES buffer, 3% DMSO; Ki computed from IC50 with a web-based converter; details: both partners purified
T5 construct: natriuretic peptide receptor C (NPR-C), human, extracellular domain, residues 27-481; Mainly monomer (~55 kDa) on non-reducing SDS-PAGE; the discussion says ~25% of the molecules are disulphide-bonded; The tag's end is read from the construct's name; also called (27–481)-6His (ECD); extracellular NPR-C; source: expressed and isolated at Peak Proteins, UK; not shown: 6His, C-terminal, kept
T5 sequence (looked up): T3 sequence (P17342 27-481) with S450C, G452L, L453E, E455S

[6] = biological target: T4, Human full-length (FL) NPR-C …; test: as above; details: both partners purified
[7] = biological target: T4, Human full-length (FL) NPR-C …; test: as above; details: both partners purified; remark: listed apart in the source

With C‐type natriuretic peptide [CNP] the “% theoretical R max” value [1] was 31%, the “ΔTm, approximate shift given in text” value (FL NPR‐C; FL NPR‐C, ratio not stated in the sentence (Figure 9c,d)) was ~ 11 °C and the ΔTm (FL NPR‐C; NPRC + ligand (1:1)) was “+8.2 °C”. For the same molecule, the ΔTm (FL NPR‐C; NPRC + ligand (1:10)) was “+11.7 °C”, the Ki (NPR‐C) was 0.023 nM and the “% theoretical R max” value [2] was 51%.

B1: 5-carboxyfluorescein N-terminus labelled GLSKG[CFGRSLDRIGSLSGLGC]NS (Flu-P19) (peptide)
peptide: 5FAM-GLSKGCFGRSLDRIGSLSGLGCNS
modifications: not fully specified (bridges); cysteine pairing not given here
notes: P19, a peptide identified by phage display (Deschênes et al., cited); also called Flu-P19 probe; source: synthetic peptide, bought: Peptide Protein Research Ltd, UK
Work on B1 yielded a Kd [3] of about 10 nM.

B2: C-type natriuretic peptide (ligand)
chain: GLSKGCFGLKLDRIGSMSGLGC
modifications: disulfide 6-22 (inferred)
For B2, the ΔTm [4] was about 11 °C, the Ki [5] was 0.1 nM and the IC50 [6] was 68.4 nM and 142 nM and 111 nM. For the same molecule, the Ki [6] was 0.1 nM, the IC50 [7] was 142 nM and the Ki [7] was 0.49 nM.
